# Measurements from the supplement of paper PMC10567573.
# B1: CPXM2 (parent)
# chain: TASTKNCMVGYDMGATRCDFTLSK
# Variants of: B1
# Assay: protein stability index of a GFP-peptide fusion (GPS, HEK-293T) (PSI 1-6); higher = more stable
# Details: c terminus: a fixed tail appended
# 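Also: lentivirally expressed fusions sorted by FACS into six bins by GFP to DsRed ratio, PSI derived from sequencing read proportions per bin multiplied by bin number.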
row,Variant,protein stability index
1,TASTKNCMVGYDMGATRCDFTLSP [K24P],2.35
2,TASTKNCMVGYDMGATRCDFTLSY [K24Y],2.73
3,TASTKNCMVGYDMGATRCDFTLSQ [K24Q],1.82
4,TASTKNCMVGYDMGATRCDFTLSF [K24F],4.01
5,TASTKNCMVGYDMGATRCDFTLSM [K24M],2.85
6,TASTKNCMVGYDMGATRCDFTLSV [K24V],2.78
7,TASTKNCMVGYDMGATRCDFTLSL [K24L],1.52
8,TASTKNCMVGYDMGATRCDFTLSD [K24D],2.37
9,TASTKNCMVGYDMGATRCDFTLSA [K24A],2.43
10,TASTKNCMVGYDMGATRCDFTLSH [K24H],2.87
11,TASTKNCMVGYDMGATRCDFTLSN [K24N],2.03
12,TASTKNCMVGYDMGATRCDFTLSC [K24C],2.38
13,TASTKNCMVGYDMGATRCDFTLST [K24T],1.62
14,TASTKNCMVGYDMGATRCDFTLSS [K24S],2.22
15,TASTKNCMVGYDMGATRCDFTLSI [K24I],3.76
16,TASTKNCMVGYDMGATRCDFTLSE [K24E],2.62
17,TASTKNCMVGYDMGATRCDFTLSR [K24R],1.56
18,TASTKNCMVGYDMGATRCDFTLSG [K24G],1.78
19,TASTKNCMVGYDMGATRCDLTLSK [F20L],2.42
20,TASTKNCMVGYDMGATRCDWTLSK [F20W],2.28
21,TASTKNCMVGYDMGATRCDGTLSK [F20G],3.5
22,TASTKNCMVGYDMGATRCDKTLSK [F20K],3.67
23,TASTKNCMVGYDMGATRCDHTLSK [F20H],3.5
24,TASTKNCMVGYDMGATRCDVTLSK [F20V],2.81

row,Variant,protein stability index
1,TASTKNCMVGYDMGATRCDITLSK [F20I],2.69
2,TASTKNCMVGYDMGATRCDNTLSK [F20N],2.98
3,TASTKNCMVGYDMGATRCDSTLSK [F20S],2.99
4,TASTKNCMVGYDMGATRCDATLSK [F20A],2.51
5,TASTKNCMVGYDMGATRCDCTLSK [F20C],2.52
6,TASTKNCMVGYDMGATRCDQTLSK [F20Q],3.05
7,TASTKNCMVGYDMGATRCDPTLSK [F20P],4.12
8,TASTKNCMVGYDMGATRCDETLSK [F20E],4.26
9,TASTKNCMVGYDMGATRCDMTLSK [F20M],2.78
10,TASTKNCMVGYDMGATRCDDTLSK [F20D],3.85
11,TASTKNCMVGYDMGATRCDTTLSK [F20T],3.88
12,TASTKNCMVGYDMGATRCDYTLSK [F20Y],2.13
13,TASTKNCMVGYDMGATRCDRTLSK [F20R],3.63
14,TASTKNCMVGYDMGATRCDFVLSK [T21V],2.48
15,TASTKNCMVGYDMGATRCDFRLSK [T21R],2.89
16,TASTKNCMVGYDMGATRCDFQLSK [T21Q],3.15
17,TASTKNCMVGYDMGATRCDFILSK [T21I],2.02
18,TASTKNCMVGYDMGATRCDFFLSK [T21F],2.11
19,TASTKNCMVGYDMGATRCDFLLSK [T21L],2.52
20,TASTKNCMVGYDMGATRCDFKLSK [T21K],3.35
21,TASTKNCMVGYDMGATRCDFMLSK [T21M],1.95
22,TASTKNCMVGYDMGATRCDFCLSK [T21C],1.57
23,TASTKNCMVGYDMGATRCDFPLSK [T21P],2.71
24,TASTKNCMVGYDMGATRCDFHLSK [T21H],3.16

row,Variant,protein stability index
1,TASTKNCMVGYDMGATRCDFYLSK [T21Y],1.91
2,TASTKNCMVGYDMGATRCDFGLSK [T21G],2.48
3,TASTKNCMVGYDMGATRCDFNLSK [T21N],3.06
4,TASTKNCMVGYDMGATRCDFDLSK [T21D],2.52
5,TASTKNCMVGYDMGATRCDFALSK [T21A],2.37
6,TASTKNCMVGYDMGATRCDFWLSK [T21W],1.67
7,TASTKNCMVGYDMGATRCDFSLSK [T21S],2.21
8,TASTKNCMVGYDMGATRCDFELSK [T21E],3.16
9,TASTKNCMVGYDMGATRCAFTLSK [D19A],2.9
10,TASTKNCMVGYDMGATRCWFTLSK [D19W],2.24
11,TASTKNCMVGYDMGATRCIFTLSK [D19I],1.94
12,TASTKNCMVGYDMGATRCCFTLSK [D19C],1.91
13,TASTKNCMVGYDMGATRCGFTLSK [D19G],1.94
14,TASTKNCMVGYDMGATRCTFTLSK [D19T],2.36
15,TASTKNCMVGYDMGATRCPFTLSK [D19P],2.77
16,TASTKNCMVGYDMGATRCHFTLSK [D19H],2.59
17,TASTKNCMVGYDMGATRCMFTLSK [D19M],1.82
18,TASTKNCMVGYDMGATRCFFTLSK [D19F],1.75
19,TASTKNCMVGYDMGATRCVFTLSK [D19V],1.78
20,TASTKNCMVGYDMGATRCQFTLSK [D19Q],1.84
21,TASTKNCMVGYDMGATRCLFTLSK [D19L],2.54
22,TASTKNCMVGYDMGATRCNFTLSK [D19N],3.07
23,TASTKNCMVGYDMGATRCEFTLSK [D19E],2.18
24,TASTKNCMVGYDMGATRCRFTLSK [D19R],2.9

row,Variant,protein stability index
1,TASTKNCMVGYDMGATRCSFTLSK [D19S],2.08
2,TASTKNCMVGYDMGATRCKFTLSK [D19K],2.67
3,TASTKNCMVGYDMGATRCYFTLSK [D19Y],2.36
4,TASTKNCMVGYDMGATRCDFTISK [L22I],1.88
5,TASTKNCMVGYDMGATRCDFTESK [L22E],3.07
6,TASTKNCMVGYDMGATRCDFTSSK [L22S],2.41
7,TASTKNCMVGYDMGATRCDFTPSK [L22P],2.48
8,TASTKNCMVGYDMGATRCDFTGSK [L22G],3.48
9,TASTKNCMVGYDMGATRCDFTKSK [L22K],3.36
10,TASTKNCMVGYDMGATRCDFTYSK [L22Y],2.26
11,TASTKNCMVGYDMGATRCDFTTSK [L22T],3.23
12,TASTKNCMVGYDMGATRCDFTWSK [L22W],1.74
13,TASTKNCMVGYDMGATRCDFTHSK [L22H],3.06
14,TASTKNCMVGYDMGATRCDFTMSK [L22M],2.39
15,TASTKNCMVGYDMGATRCDFTDSK [L22D],3.58
16,TASTKNCMVGYDMGATRCDFTNSK [L22N],3.41
17,TASTKNCMVGYDMGATRCDFTRSK [L22R],2.35
18,TASTKNCMVGYDMGATRCDFTVSK [L22V],2.52
19,TASTKNCMVGYDMGATRCDFTASK [L22A],2.64
20,TASTKNCMVGYDMGATRCDFTFSK [L22F],2.12
21,TASTKNCMVGYDMGATRCDFTQSK [L22Q],2.96
22,TASTKNCMVGYDMGATRCDFTCSK [L22C],2.42
